From the DeepSol protein solubility set

Assay: soluble on expression in E. coli; label from the status in PepcDB or PDB records

Soluble on expression in E. coli, soluble:
MNRILLYVHFNKYNKISAHVYYQLEQMRSLFSKIVFISNSKVSHEDLKRLKNHCLIDEFLQRKNKGFDFSAWHDGLITMGFDKLEEFDSLTIMNDTCFGPIWEMAPYFENFEEKKAVDFWGITNNRGTKAFKEHVQSYFMTFKNQVIQNKVFQQFWQSIIEYENVQEVIQHYETQLTSILLNEGFSYQTVFDTRKAESSFMPHPDFSYYNPTAILKHHVPFIKVKAIDANQHIAPYLLNLIRETTNYPIDLIVSHMSQISLPDAKYLLSQKYLNCQRLAKQTCQKVAVHLHVFYVDLLDEFLTAFEDWNFHYDLFITTDSDIKRKEIKEILQRKGKTADIRVTGNRGRDIYPMLLLKDKLSQYDYIGHFHTKKSKEADFWAGESWRKELIDMLVKPADSILSAFETDDIGIIIADIPSFFRFNKIVNAWNEHLIAQEMMSLWRKMDVKKQIDFQAMDTFVMSYGTFVWFKYDALKSLFDLELTQNDIPSEPLPQNSILHAIERLLVYIAWGNSYDFRIVKNPYELTPFIDNKLLNLREDEGAHTYVNFNQMGGIKGALKYIIVGPAKAMKYIFLRLMEKLKLEHHHHHH
MSLRQRLTRRDPVSRLPNREQFQSDLYDLADENPGERRVLVLVDAVDMTVAHELTLAMGLAPFETIVRFLAQQLLAYLGRHVRVYHVSVKRFGFLLPAAPGIERFLESLVRRLRRQPPGLELPMIPGVCAGTVEFSTDRDAVPDVLRKAMFALELATLNRSTWAPYDVVRDQAYRRAFNLASDISEALDSGQIYLMFQPRFALPDGAQVSAEALIRWDHPWLGPISPAEFIPVMERNALIHRVTHWVINAVLGKLQAWSDGEVQRLSINLSPQDFEDQDIADVLKAACRRHGIEPHRLEVEITEGAWLRSNPRVLDQLSKIRALGMDVAIDDFGTGYSNFAYLHQIPANVVKLDKSMVTDLESSAQHQKITRSVIALARELGYRTVAEGIESFKCLQMLRTFGCDEAQGYFLARPMVQEKFLARSAAQRFPLQEGHHHHHH
MAEEYSWDSYLNDRLLATNQVSGAGLASEEDGVVYACVAQGEESDPNFDKWSLFYKEDYDIEVEDENGTKTTKTINEGQTILVVFNEGYAPDGVWLGGTKYQFINIERDLEFEGYNFDVATCAKLKGGLHLVKVPGGNILVVLYDEEKEQDRGNSKIAALTFAKELAESSQLQHHHHHH
MRRSGNYNPSRWDVNFIQSLLSDYKEDKHVIRASELVTLVKMELEKETDQIRQLELIDDLQRMGLSDHFQNEFKEILSSIYLDHHYYKNPFPKEERDLYSTSLAFRLLREHGFQVAQEVFDSFKNEEGEFKESLSDDTRGLLQLYEASFLLTEGETTLESAREFATKFLEEKVNEGGVDGDLLTRIAYSLDIPLHWRIKRPNAPVWIEWYRKRPDMNPVVLELAILDLNIVQAQFQEELKESFRWWRNTGFVEKLPFARDRLVECYFWNTGIIEPRQHASARIMMGKVNALITVIDDIYDVYGTLEELEQFTDLIRRWDINSIDQLPDYMQLCFLALNNFVDDTSYDVMKEKGVNVIPYLRQSWVDLADKYMVEARWFYGGHKPSLEEYLENSWQSISGPCMLTHIFFRVTDSFTKETVDSLYKYHDLVRWSSFVLRLADDLGTSVEEVSRGDVPKSLQCYMSDYNASEAEARKHVKWLIAEVWKKMNAERVSKDSPFGKDFIGCAVDLGRMAQLMYHNGDGHGTQHPIIHQQMTRTLFEPFA
ARVDQTPQRITKETGESLTINCVVRDSRCVLSTGYWYRKPPGSRNEESISDGGRYVETVNRGSKSFSLRINDLTVKDSGTYRCKPESRYGSYDAVCAALNDQYGGGTVVTVNAAAHHHHHH

Soluble on expression in E. coli, not soluble:
MSNLKQLRTRIKSVKSTQKITKAMQLVSASKMAKIKSQIANSNFYIEAVSKMMSAILSIDMYELSIEEQKFFNTVPNKANLLIVMTSQRGLCGTFNYSIIKQVKNDIKELENKGEQIKLIIIGKKGYEALKRQYVNYIDSYFELPKIHDENLMLQVKQKIMSAVENLEVSNCVIYFNKFKNAMTQIMTRQQILPVAKYQDDSMIDNPIVNLVGFGYKERGVKPINNRRATSDIVGESKSIDYNYEYEGESLISNLINLYVNSQINYALLQSRASEEGARMTAMENATNNANDLISKLVLKLNRSRQAIITTELIEIIAGSEVV
MRTKYILELFDTSEQHKPIARFESSTPFTAASVGERFDDIGWERLDGAGKIASPLSPKRYTVHSAKHLVIVEAGALVIKYCLNLEPFSGPSSPVWGDE
MKKYQQLFKQIQETIQNETYAVGDFLPSEHDLMEQYQVSRDTVRKALSLLQEEGLIKKIRGQGSQVVKEETVNFPVSNLTSYQELVKELGLRSKTNVVSLDKIIIDKKSSLITGFPEFRMVWKVVRQRVVDDLVSVLDTDYLDMELIPNLTRQIAEQSIYSYIENGLKLLIDYAQKEITIDHSSDRDKILMDIGKDPYVVSIKSKVYLQDGRQFQFTESRHKLEKFRFVDFAKRKK
MDDHNALLAERHTIFQSSLMTALLDGIYDGEISIGELLGHGNFGIGTFDALDGEMVILDGVCYQLRGDGSASEAALTQRSPFAIATNFVPRLKARVPRGMHRSELSDFITSLLPSENYMYAVRISGMFSSVSVRTVTKQERPYRPMTQATGDDAELEFTNVSGVVAGFRTPIYEKGIGVPGCHVHFIDTDRTSGGHVLDFTMSEGTIEVCPGTDLQLRLPLTQDFSKASLAPDDLDAQIHATEVKG
GPGSMVVASCPGKVLILGGYLIVEEPNVGISVGTTARFVTRVASWKKCSDGKCRVHIVSSQFNKEFTFECAAEEDSDSTIKIVQLEGAPSPFLFYGILYSVAGALLFGGDIFRDVTLELLADNDFYSQRNYLESQGKPVTAANLRLIPRYTPLLGEVSKTGLGSSAAMTTSVVACLLQLYVFDSKKNNATESVERAPELPLRLEDVTEFIHRISQVAHCVAQGKVGSGFDVYTATFGTCVYRRFSARVLEKLVKGNEPPKRVTIPLLRECVETDEVWVQRIPFRLPTGLQLLLGDVHKGGTETPGMVSKVMSWRRSVTTDPNSLWERLRMSNEKYVEALQGLIKQSQEAPVAYTEAVKNLKSVVLAKHNPSTEAERLWVEAASVASTSRRYLREMGEAAQVQIEPPELTSLLDATCSIPGVFAVGCPGAGGYDAVFALVLGEEVCSAVERFWECYNDLQVCPLLVRGDANGLVLD
MPAKDVQICPIAVDTTVFRSRTWDRLKFEIEYGLQRGTTANSYLISADKIALFDPPGESFTDNFVGTLIQRLDLNSLDYVILGHVNANRAHTLKLLLSLAPQATIICSNPAAQNLEKLLADAEVNNPIQVMKGNDHLDLGRGHELTFIPTPSPRYPGQLCTYDPRTEILFTDKLFGAHVCGDQVFDEGWTIYQEDRRYYFDCLLAPAAAQVSAALNKLEAYPAQTYAPSHGPLVRYGLRELTRNYQQWLSEQQAQALEHHHHHH
MKKHIKNLFLLAAICLTVACKEQLYTGLTEKEANQMQALLLSNDVNVSKEMDKSGNMTLSVEKEDFVRAITILNNNGFPKKKFADIEVIFPPSQLVASPSQENAKINYLKEQDIERLLSKIPGVIDCSVSLNVNNNESQPSSAAVLVISSPEVNLAPSVIQIKNLVKNSVDDLKLENISVVIKSSSGQDG
MGSDKIHHHHHHMFEPFPGNYVWNLGINLALIAGGNHGELDEVCRPVREAAKAGADAGSALLFDSWIAVADQVTRNAERDEAEGFLLSAGAKYLRASGYYLGAERLQSRDYAPRWVAYDKGLELYHKGSALSGLHVDKVEIPYEGSSYPAIFVHDGSGTPRPTLVSVNGLDSMKEQVNMAGHGAVNLARGMNTLFLDQPGTGEAIRKRNLPAVFDAERWGSPAFDYLLTRSDVIHSQIGIFGLSFGGYHAPRIAANDPRYALCAVMGANHVWGQRQRERVANEGENPVPHYWDHVMWVFGIDDQAAFLEYADQITLDGQVEKIRVPFLITHGENDRQIPAYNAQMSYDQAVNSPKRTLRIFTRADFEVEHCGADNGTGMRDYIADWCAQTFAEMAGNKG
MNQNDNRIFRKEDLDWKELETIGIHKEELEKSGDMELLLQGEETETVPLKIRTSALRLTMDATLRITVGTDGKPVMEINGISPEAESEAGG
MLHIVKHLEKLPLLSAYLLDGDVVLLTENAVYAAAVHSPYQASINDQNLWLVLYEDLHARGWLEKCDPRISVVTMSDFVDLTVTHDKSITW
